± gives the standard deviation.

The source of these data is the supplement of paper PMC10567573.

This series in a line: protein stability index of a GFP-peptide fusion (GPS, HEK-293T) (PSI 1-6); higher = more stable.
Setting [1] is: treatment: DMSO, c terminus: a fixed tail appended.
Where [2] appears, read: treatment: MLN4924 1 uM, 8 h, c terminus: a fixed tail appended.
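Also: 24-mer peptide tiles fused after GFP, lentivirally expressed, FACS-sorted into six equal bins by GFP/DsRed ratio, decoded by Illumina sequencing, PSI is the read-weighted mean bin number.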

As to TACLTDRGIIMTFGSGSNGCLGHG [NEK8], the protein stability index runs as follows: under setting [1], 2.23 ± 0.2; under setting [2], 2.28 ± 0.32.
On the same counts, the results for TAPLYKDEKEQLIIPQVPLFNILA [USP39] are 2.15 ± 0.13 and 2.09 ± 0.39.
On the same counts, the results for TDDDGQAPEAKDGSSFSGRVFRVT [APMAP] are 4.94 ± 0.24 and 4.74 ± 0.23.
As to TDLEMQIESLNEELAYMKKNHEEE [KRT13], the protein stability index was determined as 5.4 ± 0.16 under setting [1] and 5.433 ± 0.051 under setting [2].
Consider TEGFPPGGGNARATGMFLQYTVPG [ZFYVE21], for which the protein stability index is 3.11 ± 0.16 under setting [1] and 3.07 ± 0.27 under setting [2].
With TEITELRRTLQGLEIELQSQLSMK [KRT13], the protein stability index was 2.78 ± 0.27 under setting [1] and 2.85 ± 0.18 under setting [2].
For TEVITASEFHPHHCNLFVYSSSKG [PPP2R2C] the same measures were 2.73 ± 0.24 and 2.97 ± 0.29.
For the sequence TFGPIPEFSRATAEKVNQDMCMKV [CRYL1], the protein stability index was found to be 3.9 ± 0.25 under setting [1] and 3.94 ± 0.17 under setting [2].
In the case of TFPSGSGAHFPQVPGGAVRVAAAA [PI4K2A], the protein stability index by setting is: under setting [1], 3.81 ± 0.27; under setting [2], 3.81 ± 0.32.
TGVPGSPGHIGPPGPTGPKGISGH [EMID1]: the protein stability index is 4.33 ± 0.3 under setting [1] and 4.71 ± 0.27 under setting [2].
With TGWFGGGFTSYLGFGDEDTGLELI [MIA2], under setting [1], the protein stability index is 2.07 ± 0.35.
For the sequence TIEECCRKQKQELCEKFDYLYGIL [TRIM55], the protein stability index runs as follows: under setting [1], 1.88 ± 0.54; under setting [2], 2.41 ± 0.85.
With TIIPILQHLKYKEHPEALSCLLLQ [INTS3], the protein stability index under setting [1] stood at 2.35 ± 0.15 and the protein stability index under setting [2] came out at 2.25 ± 0.14.
As to TILLSYGVILHSLKTQSLEGKRKA [OR4A15], the protein stability index runs as follows: under setting [1], 2.5 ± 0.082; under setting [2], 2.41 ± 0.55.
Consider TISFGSVSPGGVKLEISTKEVPVV [EPB41L3], for which the protein stability index was determined as 2.9 ± 0.21 under setting [1] and 3.31 ± 0.18 under setting [2].
Consider TKGVREVERALQLPREPGDSAQFT [FEM1A], for which the protein stability index was 4.72 ± 0.23 under setting [1] and 4.76 ± 0.29 under setting [2].
On to TKILVVNAAYFVGKWMKKFPESET [SERPINB5], for which the protein stability index reads like this: under setting [1], 2.56 ± 0.6; under setting [2], 2.53 ± 0.47.
With TKIRALQGSLENMSKLLKRQNDIL [CD207], the protein stability index by setting is: under setting [1], 2.4 ± 0.16; under setting [2], 2.57 ± 0.21.
Consider TKNKELTDEFRELRATVERMGLMK [FADS1], for which the protein stability index is 3.71 ± 0.37 under setting [1] and 3.55 ± 0.27 under setting [2].
On the same counts, the results for TKVGGTNPNGGSFEEVLSSTAHAS [TPD52L1] are 4.78 ± 0.26 and 4.69 ± 0.26.
On to TLKCLSHHVADAYTSSQKVSPIQI [TOR1AIP2], for which the protein stability index came out at 2.53 ± 0.096 under setting [1] and 2.6 ± 0.37 under setting [2].
On the same counts, the results for TLLKKISEASKAFQMEKIEHGYEN [TRIM55] are 2.3 ± 0.26 and 2.4 ± 0.15.
Regarding TLPVSGNLLDVYSSQGVATPAITV [TFE3], the protein stability index reads like this: under setting [1], 2.58 ± 0.24; under setting [2], 2.73 ± 0.27.
On to TLPYPVKIKVRFSFFLQIYLIMIF [HACD3], for which the protein stability index was 2.86 ± 0.94 under setting [1] and 2.84 ± 0.72 under setting [2].
As to TLRDHFKGISSHSRSSLMPLRNDV [SLC2A12], the protein stability index by setting is: under setting [1], 2.96 ± 0.15; under setting [2], 3.03 ± 0.37.
Sequence TNFHGVCMFCNEEFLGNRSVILNH [ZNF277] returned a protein stability index under setting [1] of 2.08 ± 0.33 and a protein stability index under setting [2] of 2.11 ± 0.39.
Take TPISNEVEMESEEQIAERKRKMVS [KMT2E]: the protein stability index runs as follows: under setting [1], 5.02 ± 0.36; under setting [2], 5.05 ± 0.18.
For TPLHVAAFLGDAEIIELLILSGAR [ANKRD44] the same measures were 2.57 ± 0.7 and 2.52 ± 0.22.
With TPLLIAARYGHLDVVEYLVDRCGA [FEM1A], the protein stability index is 2.05 ± 0.27 under setting [1] and 2.18 ± 0.15 under setting [2].
Regarding TPLTFTKVSEGQADIMISFVRGDH [MMP1], the protein stability index amounted to 2.64 ± 0.28 under setting [1] and 2.65 ± 0.26 under setting [2].
For the sequence TPRRVFANAHTYHINSISVNSDYE [PPP2R2B], the protein stability index is, setting by setting: under setting [1], 3.35 ± 0.34; under setting [2], 3.12 ± 0.42.
As to TPVSYRMAKTLVFSKVKTSLGLDH [ACSBG2], the protein stability index runs as follows: under setting [1], 2.33 ± 0.33; under setting [2], 2.41 ± 0.18.
As for TQHWPIRLDGQQEPQPFVTSDVYS [MYORG], the protein stability index came to 3.56 ± 0.27 under setting [1] and 3.46 ± 0.22 under setting [2].
For TQPTHGQFALTNGDPLNCHSYLSG [NR2F2], the protein stability index runs as follows: under setting [1], 3.69 ± 0.17; under setting [2], 3.87 ± 0.23.
For the sequence TSCKLTDLRGVCVSGKCEPIGCDG [ADAMTSL2], the protein stability index is, setting by setting: under setting [1], 3.4 ± 0.12; under setting [2], 3.28 ± 0.27.
As to TSVNLGILTADLYSLFVGLFLFGY [SLC35F2], the protein stability index is 2.93 ± 0.26 under setting [1] and 3.12 ± 0.2 under setting [2].
For TTISYLPHAPPFAGGHPAQLGLGR [JUNB] the same measures were 2.72 ± 0.2 and 2.61 ± 0.26.
For the sequence TTNVKSASRQKTSLGIELHCNVSN [ZNF396], the protein stability index is, setting by setting: under setting [1], 3.39 ± 0.29; under setting [2], 3.82 ± 0.31.
Turning to TVSTSEVTSQQEPQIPVDRGSETT [TAF7L], the protein stability index under setting [1] amounted to 5.49 ± 0.12 and the protein stability index under setting [2] was 5.44 ± 0.16.
TYSLPPFLKAVLRQERVSLYPFQI [CDS1] showed a protein stability index under setting [1] of 2.19 ± 0.8 and a protein stability index under setting [2] of 2.12 ± 0.32.
For VAQRSGCEERWLVIDRKVYNISEF [FADS1], the protein stability index reads like this: under setting [1], 2.11 ± 0.084; under setting [2], 2.12 ± 0.32.
Consider VAQTGILWLLMNNCFLNLSPRKP [GAGE1], for which the protein stability index is, setting by setting: (treatment: DMSO, c terminus: native) 2.71 ± 0.17; (treatment: MLN4924 1 uM, 8 h, c terminus: native) 2.82 ± 1.2.
VARSGTPAVENKQQIGDAIRMIVR [PLK2]: the protein stability index runs as follows: under setting [1], 3 ± 0.22; under setting [2], 3.09 ± 0.23.
As to VAVESMEPNNIVVLLQTSPYHVDS [TCF25], the protein stability index runs as follows: under setting [1], 2.28 ± 0.38; under setting [2], 2.13 ± 0.4.
Turning to VAVNGESVETLDHDSVVEMIRKGG [PDZK1], the protein stability index under setting [1] came to 4.61 ± 0.27 and the protein stability index under setting [2] came out at 4.59 ± 0.24.
Regarding VCINLPPPLTRQIAVKTLGIGKNV [GFOD1], the protein stability index reads like this: under setting [1], 2.23 ± 0.27; under setting [2], 2.05 ± 0.19.
Turning to VCNINKGCGYGCQLHHVVYCFMIA [FUT8], the protein stability index by setting is: under setting [1], 2.89 ± 0.42; under setting [2], 3.2 ± 0.68.
For the sequence VCSQCGKVLEEGGFFEEKGAIFCP [PDLIM7], the protein stability index runs as follows: under setting [1], 4.88 ± 0.22; under setting [2], 4.81 ± 0.38.
Consider VDGAGKPGAEEAQDPEGKGEQEHS [CHGA], for which the protein stability index runs as follows: under setting [1], 5.56 ± 0.18; under setting [2], 5.3 ± 0.11.
Regarding VDIKPANMEELTEVITAAEFHPHH [PPP2R2B], the protein stability index was determined as 4.47 ± 0.34 under setting [1] and 4.42 ± 0.58 under setting [2].
As to VEKFIYENHPDVFSDSSMDHFQKF [MYOZ1], the protein stability index runs as follows: under setting [1], 2.94 ± 0.2; under setting [2], 3.09 ± 0.19.
For VFFVCFVPYHIARIPYTKSQTEAH [P2RY14], the protein stability index under setting [1] was determined as 3.57 ± 0.74 and the protein stability index under setting [2] is 3.17 ± 0.35.
Sequence VFLPIVVLIFKSILFLPCLRKKIL [STEAP1] showed a protein stability index under setting [1] of 2.98 ± 0.78 and a protein stability index under setting [2] of 2.98 ± 0.59.
